The results in this text go back to US20250281533A1 (LG CHEM, published 2025).

One test deals with T1, Human MUC1 protein (human, UniProt P15941 1041-1153, limits assumed).
T1 construct: also called mucin1 antigen; human mucin1
T1 sequence: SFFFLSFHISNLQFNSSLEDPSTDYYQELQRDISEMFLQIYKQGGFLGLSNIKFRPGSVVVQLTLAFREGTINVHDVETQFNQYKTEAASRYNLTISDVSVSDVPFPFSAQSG
Put plainly: SPR, Biacore T200; scFv-Fc on anti-human IgG (Fc) CM5 chip, human MUC1 protein injected at 25-400 nM. The method, then: Affinity of scFv-Fc antibody including the scFv for mucin1 antigen was measured using Biacore T200 (GE healthcare). Anti-human IgG (Fc) antibody (GE healthcare, Cat. No. BR-1008-39, final concentration of 25 ug/mL) was applied at a rate of 5 uL/min for 360 seconds on a Series S Sensor Chip CM5 (GE healthcare, Cat. No. BR-1005-30) using an Amine Coupling Kit (GE healthcare, Cat. No. BR-1000-50) and immobilized at about 5000-7000 RU.

In test [1] the target is T2, C subunit of human MUC1 expressed in HEK293T cells (HEK293T-v1) (human, UniProt P15941 1098-1255, limits assumed).
T2 construct: domain: C subunit of MUC1; also called MUC1-C
T2 sequence (looked up): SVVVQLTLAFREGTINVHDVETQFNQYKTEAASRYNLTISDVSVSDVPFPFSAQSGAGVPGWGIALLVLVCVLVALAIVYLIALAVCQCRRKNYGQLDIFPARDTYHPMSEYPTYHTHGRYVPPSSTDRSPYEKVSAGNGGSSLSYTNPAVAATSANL
In words: flow cytometry (PE MFI, corrected to G03 at 380 ug/mL) on HEK293T-v1 cells expressing MUC1 C subunit. The method, then: The soluble scFv prepared in Example 1 was diluted 5-fold to prepare a total of 8 serial dilutions. Each serial dilution was 380 μg/mL, 76 μg/mL, 15.2 μg/mL, 3.04 μg/mL, 0.608 μg/mL, 0.1216 μg/mL, 0.02432 μg/mL, 0.004864 μg/mL. A buffer used in soluble scFv dilution and cell washing was PBS containing 2% FBS and 10 mM EDTA. Four kinds of cells were prepared at a density of 1×10⁶/mL, respectively, and put in a 96 well U-bottom cell culture plate at a density of 1×10⁵/100 μl/well, followed by centrifugation at 1500 RPM for 5 minutes. The soluble scFv prepared previously was treated in an amount of 50 μl/well. The cells were left at 4° C. for 1 hour. 150 μl/well of the cell washing buffer was added thereto and then mixed, followed by centrifugation at 1500 RPM for 5 minutes. The supernatant was discarded, and 200 μl/well of the cell washing buffer was added thereto and then mixed, followed by centrifugation at 1500 RPM for 5 minutes. A goat anti-human IgG Fc-biotin antibody (Invitrogen, A18821) was diluted 500-fold, and 50 μl/well thereof was treated. The cells were left at 4° C. for 20 minutes. 150 μl/well of the cell washing buffer was added thereto and then mixed, followed by centrifugation at 1500 RPM for 5 minutes. The supernatant was discarded, and 200 μl/well of the cell washing buffer was added thereto and then mixed, followed by centrifugation at 1500 RPM for 5 minutes. PE-Streptavidin (BD Pharmigen, 554061) was diluted 1000-fold, and 50 μl/well thereof was treated. The cells were left at 4° C. for 20 minutes. 150 μl/well of the cell washing buffer was added thereto and then mixed, followed by centrifugation at 1500 RPM for 5 minutes. The supernatant was discarded, and 200 μl/well of the cell washing buffer was added thereto and then mixed, followed by centrifugation at 1500 RPM for 5 minutes. 80 μl/well of the cell washing buffer was added and mixed, followed by flow cytometry.
The affinity of the soluble scFv to the mucin1-expressing cells was confirmed by PE MFI values from the results of the flow cytometry. Each cell line without soluble scFv was stained with another fluorescent antibody (Goat anti-human IgG Fc-biotin antibody, PE-Streptavidin), which was used as a negative control value, and each cell line was treated with G03 at a concentration of 380 μg/mL, which was used as a positive control value, and MFI value was corrected as follows: […]
(In flow cytometry, cells or beads pass a laser one at a time.)

B1: scFv-Fc antibody including the scFv 2447_3B07 (Fc fusion)
scFv: QVQLVESGGVVVQPGGSLRLSCAASGFTFDDYAMHWVRQAPGRGLEWVSLTSWDGGSTYYADSVKGRFTISRDNSKNSLYLQMNSLRAEDTALYYCAKDHSSGWYNGGMDVWGQGTMVTVSSGGGGSGGGGSGGGASSYELTQDPAVSVALGQTVRITCQGDSLRSYYASWYQQKPGQAPVLVIYGKNNRPSGIPDRFSGSSSGNTASLTITGAQAEDEADYYCNSRDSSGNHVVFGGGTKLTVL
notes: scFv-Fc format as used in the Biacore assay; not shown: Fc part (with any hinge or linker) of the scFv-Fc
For the molecule B1, the Kd with Human MUC1 protein was 51.7 nM.

B2: scFv-Fc antibody including the scFv 2447_3H02 (Fc fusion)
scFv: EVQLLESGGGLVQPGRSLRLSCAASGFTFDDYAMHWVRQAPGKGLEWVSGISWDSGSIGYADSVKGRFTISRDNAKNSLYLQMNSLRAEDTALYYCAKDVSSGWYWYAFDIWGQGTLVTVSSGGGGSGGGGSGGGASSYELTQDPAVSVALGQTVRITCQGDILRSYYASWYQQKPGQAPVLVIYGKNNRPSGIPDRFSGSSSGNTASLTITGAQAEDEADYYCNSRDSSGNRVVFGGGTKLTVL
notes: scFv-Fc format as used in the Biacore assay; not shown: Fc part (and any hinge or linker) of the scFv-Fc
B2 displayed a Kd with Human MUC1 protein of 58.8 nM.

B3: scFv-Fc antibody including the scFv 2447_3A12 (Fc fusion)
scFv: EVQLVQSGAEVKKPGASVKVSCKASGYTFTSYGISWVRQAPGQGLEWMGWISAYNGNTNYAQKLRGRVTMTTDTSTSTAYMELRSLRSDDTAVYYCARDPHILTGYYRGGWFDPWGQGTLVTVSSGGGGSGGGGSGGGASSYELTQDPAVSVVLGQTVRITCQGDSLRSYYASWYQQKPGQAPVLVIYGKNNRPSGIPDRFSGSSSGNTASLTITGAQAEDEADYYCNSRDSSGNHRVFGGGTKLTVL
notes: as for B1
For the molecule B3, in the test with Human MUC1 protein, the Kd worked out at 13.8 nM. This Kd lies about 4.3-fold lower than the previous one.

B4: scFv 2447_3A12 (scFv)
scFv: B3 scFv
notes: also called #6
For B4, the concentration giving a half-maximal response (EC50) in test [1] is 1.47 µg/mL.

B5: scFv-Fc antibody including the scFv 2447_3A01 (Fc fusion)
scFv: EVQLLESGGGLVQPGGSLRLSCAASGFTFDDYAMHWVRQAPGKGLEWVSGISWNSGSIVYADFVKGRFTISRDNAKNSLYLQMNSLRAEDTALYYCAKDISSGWYPGTFDYWGQGTLVTVSSGGGGSGGGGSGGGASSYELTQDPAVSVALGQTVRITCQGDSLRSYYASWYQQKPGQAPVLVIYGKNNRPSGIPDRFSGSSSGNTASLTVTGAQAEDEADYYCSSRDSSDDVVFGGGTQLTVL
notes: as for B1
For B5, the equilibrium dissociation constant (Kd) in the test with Human MUC1 protein stood at 51.5 nM.

B6: scFv 2447_3A01 (scFv)
scFv: B5 scFv
In the case of B6, the EC50 in test [1] worked out at 4.78 µg/mL.

B7: scFv-Fc antibody including the scFv 2447_3C08 (Fc fusion)
scFv: EVQLLESGGGLVQPGGSLRLSCAASGFTFDDYAMHWVRQAPGKGLEWVSGISWNSGSIGYADSVKGRFTISRDNAKNSLYLQMNSLRAEDTALYYCAKDRGSGYEGNYYGMDVWGQGTLVTVSSGGGGSGGGGSGGGASSYELTQDPAVSVALGQTVRITCQGDSLRSYYASWYQQKPGQAPVLVIYGKNNRPSGIPDRFSGTTSGNTASLTITGAQAEDEADYYCNSRDSSGNHYVFGTGTKVTVL
notes: as for B1
In the test with Human MUC1 protein, B7 yielded an equilibrium dissociation constant (Kd) of 24 nM. This counts as double-digit nanomolar.

B8: scFv-Fc antibody including the scFv 2447_2H08 (Fc fusion)
scFv: EVQLVQSGAEVKKPGASVKVSCKASGYTFTNYGISWVRQAPGQGLEWMGWISAYNGNTNYAQKLQGRVTMTTDTSTSTAYMELRSLRSDDTAVYYCARDPHILTGYYRGGWFDPWGQGTTVTVSSGGGGSGGGGSGGGASSYELTQDPAVSVALGQTVTITCQGDSLRTSYAGWLQQKPGQAPVLVLYGKTSRPSGIPDRFSGSTSGNTASLTITGAQAEDEAEYFCHSRDSNDNYLEVVFGGGTKLTVL
notes: as for B1
With B8, the Kd with Human MUC1 protein amounted to 94.8 nM.

B9: scFv-Fc antibody including the positive control scFv G03 (Fc fusion)
scFv: EVQLVQSGAEVKKPGATVKISCKVSGYTFTSYWMHWVQQAPGKGLEWIGYINPGTGYIEYNQKFKDRVTITADKSTDTAYMELSSLRSEDTAVYYCASSTAPFDYWGQGTLVTVSSGGGGSGGGGSGGGASEIVLTQSPGTLSLSPGERATLSCKASQDIKSYLSWYQQKPGQAPRLLIYYATRLADGIPDRFSGSGSGTDFTLTISRLEPEDFAVYYCLQYDESPYTFGQGTKLEIK
notes: not shown: Fc part (with any hinge or linker) of the scFv-Fc
The molecule B9 came in with a Kd in the test with Human MUC1 protein of 27.6 nM. Compared with the last molecule, the Kd is about 3.4-fold lower.

B10: positive control scFv G03 (scFv)
scFv: B9 scFv
With B10, in test [1], the EC50 was 3.46 µg/mL.

B11: scFv-Fc antibody including the scFv 2447_3H08 (Fc fusion)
scFv: EVQLLESGGGLVQPGRSLRLSCAASGFTFDDYAMHWVRQAPGKGLEWVSGISWNSGSIDYADSVKGRFTISRDNSKNTLYLQMNSLRAEDTAVYYCARDRSSGWYTGSFDYWGQGTLVTVSSGGGGSGGGGSGGGASSYELTQDPAVSVALGQTVRITCQGDSLRSYYASWYRQKPGQAPVLVIYGKNNRPSGIPDRFSGSSSGNTASLTIIGAQAEDEADYYCQSRDSSDNRVLFGGGTKVTVL
notes: as for B2
Consider B11, for which the dissociation constant Kd with Human MUC1 protein is 39.9 nM.

B12: scFv-Fc antibody including the scFv 2447_3A09 (Fc fusion)
scFv: EVQLLESGGGLVQPGRSLRLSCAATGFTFDDYAMHWVRQAPGKGLEWVSGISWNSGSIGYADSVKGRFTISRDNAKNSLYLQMNSLRAEDTASYYCAKDVSSGWYWYAFDIWGQGTLVTVSSGGGGSGGGGSGGGASSYELTQDPAVSVALGQTVRITCQGDSLRSYYASWYQQKPGQAPVLVIYGKNNRPSGIPGRFSGSSSGNTASLTVTGAQAEDEADYYCNSRDSGGSVVFGGGTKLTVL
notes: as for B1
B12 displayed a Kd with Human MUC1 protein of 62.1 nM.

B13: scFv 2447_3A09 (scFv)
scFv: B12 scFv
notes: also called #5
B13 returned a half-maximal effective concentration (EC50) in test [1] of 1.96 µg/mL.

B14: scFv-Fc antibody including the scFv 2447_3A08 (Fc fusion)
scFv: EVQLVQSGAEVKKPGASVKVSCKASGYTFTSYGISWVRQAPGQGLEWMGWISAYNGNTNYAQKLQGRVTMTTDTSTSTAYMELRSLRSDDTAVYYCARDRATIFGVVTPFDYWGQGTLVTVSSGGGGSGGGGSGGGASSYELTQDPAVSVALGQTVRITCQGDSIRSYSASWYQQKPGQAPRLVIYGKNNRPSGIPDRVSGSTSGNTASLTVTGAQAEDEADYYCNSRDSSGNRVVFGGGTQLTVL
notes: as for B1
B14 had a Kd with Human MUC1 protein of 320 nM.

B15: scFv 2447_3A08 (scFv)
scFv: B14 scFv
For the molecule B15, a half-maximal effect in test [1] (EC50) was put at 1.73 µg/mL.

As a reminder, the Kd is the concentration at which binding is half-saturated. A higher Kd goes with weaker binding. For orientation: EC50 means the concentration needed to bring the measured effect to its halfway point.
